Substrate in this series: NC(=O)N1c2ccccc2C=Cc2ccccc21
Briefly: CPO-catalyzed degradation of carbamazepine, kinetic parameters (UV monitoring at 285 nm, CBZ concentration varied). Type of series: biochemical, Caldariomyces fumago. As to conditions: other: CBZ as substrate, 0.02 to 0.11 mM, CPO isolated from C. fumago (5 nM), 100 mM KH2PO4 buffer, 20 mM KCl, pH 2.75, H2O2 0.35 mM or 0.07 mM, absorbance at 285 nm, 0.1 to 0.2 mi. The text has this: Chloroperoxidase (CPO) is a heme-containing glycoprotein secreted by the fungus Caldariomyces fumago.
The isolation of CPO proposed in this study was a modification of the protocol reported by Morris and Hager (1966), using acetone instead of ethanol as the fractionation solvent. CPO with Rz=1.45 was applied in all reactions (Rz is the purity standard, defined as A398/A280=1.44 for a pure enzyme). All solvents were HPLC grade or Optima® LC/MS grade, purchased from Thermo Fisher Scientific Inc. (Waltham, Mass., USA). Water was produced using a Milli-Q® Biocel™ Ultra-Pure water purification system equipped with 0.22 μM membrane filter cartridge (EMD Millipore, Billerica, Mass., USA), and an organic removal cartridge (Evoqua Water Technologies, Lowell, Mass., USA).
The rate was calculated by monitoring absorbance at 285 nm from 0.1 to 0.2 min. The reaction was carried out in 100 mM KH2PO4 buffer with 20 mM KCl at pH 2.75, with the concentration of CBZ varying from 0.02 to 0.11 mM. UV monitoring was started immediately after adding 0.35 mM H2O2.
All experiments were triplicated and data reported were mean values of three independent measurements with standard deviation.
1 min. after addition of 5 nM CPO, the 285 nm absorption decreased, and stopped […] at 4 min. The 285 nm wavelength was used to measure kinetic parameters of CBZ degradation catalyzed by CPO.

B1: chloroperoxidase (CPO) (Leptoxyphium fumago) (protein)
chain: QEPGSGIGYPYDNNTLPYVAPGPTDSRAPCPALNALANHGYIPHDGRAISRETLQNAFLNHMGIANSVIELALTNAFVVCEYVTGSDCGDSLVNLTLLAEPHAFEHDHSFSRKDYKQGVANSNDFIDNRNFDAETFQTSLDVVAGKTHFDYADMNEIRLQRESLSNELDFPGWFTESKPIQNVESGFIFALVSDFNLPDNDENPLVRIDWWKYWFTNESFPYHLGWHPPSPAREIEFVTSASSAVLAASVTSTPSSLPSGAIGPGAEAVPLSFASTMTPFLLATNAPYYAQDPTLGPND
notes: heme-containing glycoprotein secreted by the fungus Caldariomyces fumago; made in house; host or cells: Caldariomyces fumago (natural producer, not recombinant)
Regarding B1, the Km – broadly, the concentration of substrate that gives half-maximal velocity – came to 73.35 µM.

The values are drawn from US10301203B2, “Chloroperoxidase-catalyzed degradation of pharmaceutical pollutants in wastewater” (THE FLORIDA INTERNATIONAL UNIVERSITY BOARD OF TRUSTEES, priority 2017, dated 2019).
